Experimental data as given in publication doi:10.1101/498865.
Like-named read-outs stand apart in the source and are kept apart here.

Key:
Experiment in all cases: other fluorescence titration
[1] = target: CyPet-Myo1^IQ1-YPet FRET reporter protein (S. pombe)
[2] = target: CyPet-Myo1^IQ12-YPet FRET reporter protein (S. pombe)
[3] = target: CyPet-Myo1^IQ1-YPet FRET reporter protein (S. pombe); remark: listed apart in the source
[4] = target: CyPet-Myo1^IQ12-S742D-YPet FRET reporter protein (S. pombe)
[5] = target: CyPet-Myo1^IQ12-YPet FRET reporter protein (S. pombe); remark: listed apart in the source

Cam1 (fission yeast calmodulin), amino-terminally acetylated, sequence (P05933 whole entry): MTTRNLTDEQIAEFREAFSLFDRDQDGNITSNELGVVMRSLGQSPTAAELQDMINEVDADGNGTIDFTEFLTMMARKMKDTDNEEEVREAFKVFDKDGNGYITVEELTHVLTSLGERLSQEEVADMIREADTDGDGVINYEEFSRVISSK

Kd [1] [nM]	KD of the first binding event [2] [nM]	KD of the second binding event [2] [nM]	Kd [3] [nM]	Kd [4] [nM]	stoichiometry N [4]	KD of the phase with 70% of the signal change [5] [nM]	stoichiometry N [5]	Molecule
< 100	< 100	680						Cam1 (fission yeast calmodulin), amino-terminally acetylated (from UniProt P05933 1-150) (natural protein)
			400	250	1	1100	2	Cam2 (fission yeast calmodulin-like protein) (natural protein) MPASKEQTDEMKEAFVLYDIDKDGLIPTSHVGSVLRSLGINVTDAELAKLSNELGDAIDEKKFMSFVSNKLRETESEEEYIKAFRVFDKDNSGYIETAKFADYMKTLGEKLSDNEVQLMVQEADPTNSGSFDYYDFVQRIMAK
